# Where a chain is given by its changes, count along the chain named.
# B1: S16 (scFv, V domains shown)
# VH: DVQLVESGGGVVRPGESLRLSCAVSGFRFSSYAMSWVRQAPGKGLEWVSGISSGGDTYYVDSVKGRFTISRDNSKNTLYLQVNSLTAEDTAIYYCARETWNHLFDYWGLGTLVTVSS
# VL: ALTQPASVSANLGETVKITCSGGDSSSHYYGWYQQKSPGSAPVTVIYSDDERPSDIPSRFSGSASGSTATLTITGVRVEDEAIYYCGAYDGSTYANTFGAGTTLTVL
# notes: also called clone 16
# B2: S27 (scFv, V domains shown)
# VH: B1 VH
# VL: B1 VL with N11D
# notes: also called clone 27; scFv-Fc form of AB27
# B3: S29 (scFv, V domains shown)
# VH: B1 VH with G54D, G55S, T57A, I92V, L112M
# VL: B1 VL with Y33F, V45L, Y85F, A95T
# notes: also called clone 29
# B4: S55 (scFv, V domains shown)
# VH: B1 VH
# VL: B1 VL with K17E
# notes: also called clone 55
# B5: S74 (scFv, V domains shown)
# VH: DVQLVESGGGVVRPGESLRLSCAASGFTFSSNAMSWVRQAPGKGLEWLAGISAGDSDTYYPASVKGRFTISRDNPKNTLYLQMNTLTAEDTAVYYCARETWNHLFDYWGLGTLVTVSS
# VL: ALTQPASVSANPGETVKIACSGGSYYSYYYGWYQQKSPGSALVTVIYSDDKRPSGIPSRFSGSASGSTATLTITGVRAEDEAVYYCGGYDYSSYTNDFGAGTTLTVL
# notes: also called clone 74
# B6: S26 (scFv, V domains shown)
# VH: DVQLVESGGGVVRPGESLRLSCAASGFTFSTYAMSWVRQAPGKGLEWVSGISASGSGTYYGDSVKGRFTMSRDNSKNTLYLQMNSLTAEDTAVYYCARETWNHLFDYWGLGTLVTVSS
# VL: ALTQPASVSANLGGTVEITCSGGSSSYYGWYQQKSPGSAPVTVIYSDNQRPSDIPSRFSGSASDSTATLTITGVQVEDEAIYYCGGYDSSTYANTFGAGTTLTVL
# notes: also called clone 26
# B7: S30 (scFv, V domains shown)
# VH: B1 VH with A23E, V24A, R28T, Y32D, G55S, D56S, V60G, D61G, V82M, I92V
# VL: ALTQPASVSASPGETVEITCSGGSDSSYYYGWYQQKSPGSAPVTVIYSDNKRPSNIPSRFSGSASGSTATLTITGVRVEDEAVYYCGGYDYSTYTNPFGAGTTLTVL
# notes: also called clone 30
# B8: S136 (scFv, V domains shown)
# VH: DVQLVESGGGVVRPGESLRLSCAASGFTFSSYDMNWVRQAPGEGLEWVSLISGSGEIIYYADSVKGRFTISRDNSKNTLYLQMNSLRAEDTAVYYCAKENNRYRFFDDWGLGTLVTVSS
# VL: ETVLTQSPGTLTLSPGERATLTCRASQSVYTYLAWYQEKPGQAPRLLIYGASSRATGIPDRFSGSGSGTEFTLTISSLQSEDFAVYYCQQYYDRPPLTFGGGTKVEIK
# notes: also called scFv-Fc form of AB136
# B9: S175 (scFv, V domains shown)
# VH: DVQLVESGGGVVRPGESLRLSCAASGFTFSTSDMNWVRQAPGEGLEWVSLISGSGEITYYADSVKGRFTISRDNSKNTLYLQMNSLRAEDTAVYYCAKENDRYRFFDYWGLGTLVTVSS
# VL: B8 VL with T10I, T12S, T56A
# B10: S177 (scFv, V domains shown)
# VH: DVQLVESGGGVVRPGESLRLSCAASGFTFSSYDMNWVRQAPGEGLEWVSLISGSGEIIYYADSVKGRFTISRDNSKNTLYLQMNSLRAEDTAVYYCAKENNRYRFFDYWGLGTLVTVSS
# VL: B8 VL with E1K, T12S, S26D, K39R, G50D
# B11: S178 (scFv, V domains shown)
# VH: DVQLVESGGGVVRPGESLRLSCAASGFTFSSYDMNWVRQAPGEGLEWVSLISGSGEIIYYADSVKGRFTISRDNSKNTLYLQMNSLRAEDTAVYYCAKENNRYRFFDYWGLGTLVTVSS
# VL: B8 VL with T22S, I58V
# B12: S180 (scFv, V domains shown)
# VH: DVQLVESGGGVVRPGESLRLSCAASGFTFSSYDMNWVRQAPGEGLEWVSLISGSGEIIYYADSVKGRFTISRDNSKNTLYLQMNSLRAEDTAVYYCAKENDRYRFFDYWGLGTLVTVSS
# VL: B8 VL
# notes: also called clone 180
# B13: S184 (scFv, V domains shown)
# VH: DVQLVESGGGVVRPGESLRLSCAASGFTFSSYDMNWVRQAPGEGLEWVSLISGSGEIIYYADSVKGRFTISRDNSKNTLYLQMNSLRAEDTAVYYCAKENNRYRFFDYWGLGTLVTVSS
# VL: B8 VL with T12S, T22N, G50D, Q79E
# B14: S185 (scFv, V domains shown)
# VH: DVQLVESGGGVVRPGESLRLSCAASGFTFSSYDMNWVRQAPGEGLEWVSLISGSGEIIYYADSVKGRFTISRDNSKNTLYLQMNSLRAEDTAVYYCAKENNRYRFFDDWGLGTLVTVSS
# VL: B8 VL with T12S, T22N, T31S, K39R, S53T, Q79E, E81D
# B15: S190 (scFv, V domains shown)
# VH: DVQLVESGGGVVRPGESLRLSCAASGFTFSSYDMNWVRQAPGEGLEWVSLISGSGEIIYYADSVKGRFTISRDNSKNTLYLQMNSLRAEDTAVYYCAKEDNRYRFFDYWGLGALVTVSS
# VL: B8 VL with A19T
# notes: also called clone 190
# B16: S193 (scFv, V domains shown)
# VH: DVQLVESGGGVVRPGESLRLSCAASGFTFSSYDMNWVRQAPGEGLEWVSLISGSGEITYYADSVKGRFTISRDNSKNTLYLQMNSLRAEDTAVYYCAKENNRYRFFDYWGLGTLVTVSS
# VL: B8 VL with T12S, T22S, G50A, S53T
# notes: scFv-Fc format (VL-linker-VH on human IgG1 Fc)
# B17: S189 (scFv, V domains shown)
# VH: DVQLVESGGGVVRPGESLRLSCAASGFTFSSSDMNWVRQAPGEGLEWVSLISGSGEITYYADSVKGRFTISRDNSKNTLYLQMNSLRAEDTAIYYCAKENNMYRFFDYWGLGTLVTVSS
# VL: B8 VL with T12S, T22S, E38Q, A43P, Y49H, G50A, S52R, S53N, T56A
# Molecular target: T1, mouse 129 SIRP-α D1 domain (mouse (129 strain), UniProt P97797 32-150)
# T1 construct: also called m129
# T1 chain: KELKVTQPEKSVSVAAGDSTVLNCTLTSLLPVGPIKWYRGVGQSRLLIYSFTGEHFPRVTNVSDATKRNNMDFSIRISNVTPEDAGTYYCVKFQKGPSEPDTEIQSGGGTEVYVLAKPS
# Test: SPR, Langmuir fit
# In short: (§1)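 Pre-filtered culture media supplied the scFv-Fc antibody clones, which were captured by anti-human IgG Fc amine-coupled (about 4000 RU) to a GLC chip on a ProteOn XPR36. SIRP analytes were flowed in PBS pH 7.4 with 0.01% Tween-20 at 25° C. Interspot and buffer-blank responses were subtracted from the data, which were then fitted to a 1:1 Langmuir model. Dissociation rate constants (koff) were derived from this fitting.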
row,Binder,koff [s⁻¹]
1,B1,0.000176
2,B2,0.000136
3,B3,0.00114
4,B4,0.000143
5,B5,0.000412
6,B6,0.00108
7,B7,0.000476
8,B8,0.000459
9,B9,0.000605
10,B10,0.00104
11,B11,0.00112
12,B12,0.000806
13,B13,0.000821
14,B14,0.000717
15,B15,0.000773
16,B16,0.00209
17,B17,0.000837

# Molecular target: T2, high affinity SIRP-α D1 variant CV1-3
# T2 chain: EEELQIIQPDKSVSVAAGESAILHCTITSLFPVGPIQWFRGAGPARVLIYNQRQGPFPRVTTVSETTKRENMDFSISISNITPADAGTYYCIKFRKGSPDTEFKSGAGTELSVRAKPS
# Test: SPR, Langmuir fit
# In short: as §1
row,Binder,koff [s⁻¹]
1,B1,0.0001
2,B2,8.94e-05
3,B3,0.000343
4,B4,6e-05
5,B5,0.000166
6,B6,4.74e-05
7,B7,0.000142
8,B8,0.00159
9,B9,0.00165
10,B11,0.00426
11,B12,0.00307
12,B13,0.00514
13,B14,0.00239
14,B15,0.00308
15,B17,0.00228

# Molecular target: T3, C57BL/6 mouse SIRP-α D1 domain (mouse (C57BL/6 strain), UniProt P97797 32-148)
# T3 sequence: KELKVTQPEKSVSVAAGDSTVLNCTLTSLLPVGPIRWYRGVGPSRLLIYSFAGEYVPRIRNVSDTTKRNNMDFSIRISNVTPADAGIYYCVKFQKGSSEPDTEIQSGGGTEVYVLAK
# Test: SPR, Langmuir fit
# In short: as §1
row,Binder,koff [s⁻¹]
1,B1,0.00235
2,B2,0.00184
3,B3,0.00186
4,B4,0.00197
5,B5,0.00137
6,B7,0.00244
7,B8,0.00478
8,B9,0.0032
9,B12,0.00466
10,B13,0.00422
11,B14,0.00514
12,B16,0.00389
13,B17,0.0039

# Molecular target: T4, human SIRPγ isoform 1 (human, UniProt Q9P1W8 29-147)
# T4 construct: also called SIRPg; sirpg
# Test: SPR, Langmuir fit
# In short: as §1
# T4 sequence (Q9P1W8 29-147 limits assumed): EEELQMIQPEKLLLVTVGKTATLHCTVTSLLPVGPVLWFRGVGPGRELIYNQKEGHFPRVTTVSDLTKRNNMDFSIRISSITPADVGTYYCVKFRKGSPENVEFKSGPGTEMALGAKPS
row,Binder,koff [s⁻¹]
1,B1,8.17e-05
2,B2,9.46e-05
3,B3,0.000216
4,B4,4.69e-05
5,B5,0.000225
6,B6,8.35e-05
7,B7,0.000193

# Molecular target: T5, human SIRP-α v2 D1 domain (human)
# T5 construct: also called human v2
# Test: SPR, Langmuir fit
# In short: as §1
row,Binder,koff [s⁻¹]
1,B1,0.000111
2,B2,9.97e-05
3,B3,0.000178
4,B4,7.16e-05
5,B5,0.000278
6,B6,0.000111
7,B7,0.000188
8,B8,0.00161
9,B9,0.00183
10,B11,0.00317
11,B12,0.00227
12,B14,0.00205
13,B15,0.00199
14,B17,0.00281

# Molecular target: T6, NOD mouse SIRP-α D1 domain (mouse (NOD strain))
# T6 chain: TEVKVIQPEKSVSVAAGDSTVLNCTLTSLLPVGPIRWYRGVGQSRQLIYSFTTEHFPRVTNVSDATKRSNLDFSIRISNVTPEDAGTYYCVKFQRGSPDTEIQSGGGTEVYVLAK
# Test: SPR, Langmuir fit
# In short: as §1
row,Binder,koff [s⁻¹]
1,B1,0.00128
2,B2,0.0013
3,B4,0.00119
4,B6,0.000764
5,B8,0.000386
6,B9,0.000417
7,B10,0.000736
8,B11,0.000762
9,B12,0.000576
10,B13,0.000638
11,B14,0.000573
12,B15,0.000563
13,B16,0.00157
14,B17,0.000504

# Molecular target: T7, cynomolgus SIRP-α D1 domain (cyno2) (cynomolgus monkey, UniProt Q5TFQ8 30-148 (human entry), limits assumed)
# T7 chain: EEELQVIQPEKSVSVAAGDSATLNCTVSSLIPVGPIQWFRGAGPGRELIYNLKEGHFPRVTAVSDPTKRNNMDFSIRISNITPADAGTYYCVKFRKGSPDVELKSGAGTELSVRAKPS
# Test: SPR, Langmuir fit
# In short: as §1
row,Binder,koff [s⁻¹]
1,B1,0.000138
2,B2,0.000161
3,B3,0.000369
4,B4,0.000116
5,B5,0.00032
6,B6,0.000743
7,B7,0.000366
8,B8,0.00132
9,B9,0.00107
10,B10,0.00269
11,B11,0.00177
12,B12,0.00138
13,B13,0.00221
14,B14,0.00103
15,B15,0.00124
16,B16,0.00428
17,B17,0.00187

# Molecular target: T8, human SIRPβ isoform 1 (human, UniProt O00241 30-148)
# T8 construct: also called SIRPb; sirpb1
# Test: SPR, Langmuir fit
# In short: as §1
# T8 sequence (O00241 30-148 limits assumed): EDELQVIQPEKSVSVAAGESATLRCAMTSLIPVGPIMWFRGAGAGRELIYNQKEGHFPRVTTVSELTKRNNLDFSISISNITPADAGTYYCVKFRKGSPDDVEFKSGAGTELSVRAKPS
row,Binder,koff [s⁻¹]
1,B1,0.000113
2,B2,8.97e-05
3,B3,0.000279
4,B4,6.48e-05
5,B5,0.000266
6,B6,0.000129
7,B7,0.000237
8,B8,0.0036
9,B9,0.00299
10,B11,0.00473
11,B12,0.00375
12,B14,0.00385
13,B15,0.00256
14,B17,0.00278

# Molecular target: T9, human SIRP-α v1 D1 domain (human, UniProt P78324 31-149)
# T9 construct: also called human v1
# Test: SPR, Langmuir fit
# In short: as §1
# T9 sequence (P78324 31-149 limits assumed): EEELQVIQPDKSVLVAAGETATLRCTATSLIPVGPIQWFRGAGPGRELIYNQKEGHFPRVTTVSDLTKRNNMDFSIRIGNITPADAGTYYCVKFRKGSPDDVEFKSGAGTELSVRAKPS
row,Binder,koff [s⁻¹]
1,B1,6.22e-05
2,B2,5.81e-05
3,B3,9.61e-05
4,B4,4.18e-05
5,B5,0.000161
6,B6,5.81e-05
7,B7,0.000132
8,B8,0.000845
9,B9,0.000839
10,B11,0.00223
11,B12,0.0016
12,B14,0.00122
13,B15,0.00156
14,B17,0.00106

# Molecular target: T10, cynomolgus SIRP-α D1 domain (cyno1) (cynomolgus monkey, UniProt Q5TFQ8 30-148 (human entry), limits assumed)
# T10 chain: T7 chain with D19E, V27A, S28T, A42V, N51H, L52Q, A62P
# Test: SPR, Langmuir fit
# In short: as §1
row,Binder,koff [s⁻¹]
1,B1,0.000132
2,B2,0.000138
3,B3,0.000387
4,B4,9.63e-05
5,B5,0.000337
6,B6,0.000967
7,B7,0.000335
8,B9,0.00177
9,B10,0.00447
10,B11,0.00344
11,B12,0.0025
12,B13,0.0039
13,B14,0.00178
14,B15,0.00217
15,B17,0.00331
